Publication PMC6392013 (Methods in molecular biology (Clifton, N.J.), 2012)

Molecular target: ubiquitin (UniProt P0CG48 1-76)
Experiment: NMR intermolecular NOESY

B1: S5a (196–306) (domain or fragment, UniProt P55036 196-306, looked up)
chain: MLGLGASDFEFGVDPSADPELALALRVSMEEQRQRQEEEARRAAAASAAEAGIATTGTEDSDDALLKMTISQQEFGRTGLPDLSSMTEEEQIAYAMQMSLQGAEFGQAESA
Q: Does B1 bind?
A: binds
